According to publication PMC4742067 (PLoS ONE, 2016):

Experiments:
[1] = molecular target: bradykinin B1 receptor (Homo sapiens) (UniProt P46663); assay: radioligand binding; conditions: cited from earlier work
[2] = molecular target: T1, human B1R C-terminally tagged with FLAG (hB1R-FLAG) (human, UniProt P46663 1-353); assay: radioligand binding; competition of unlabeled pure peptides with 1 nM [^3H]Lys-des-Arg^9-BK on intact, adherent HEK 293a cells (24-well plates) transiently expressing hB1R-FLAG; one-site competition fit (series of Fig 2 and the Lys-des-Arg^9-BK curve of Fig 7); conditions: one partner purified
T1 construct: also called human B1R-FLAG; bradykinin B1 receptor; not shown: FLAG, C-terminal, kept
T1 sequence (looked up): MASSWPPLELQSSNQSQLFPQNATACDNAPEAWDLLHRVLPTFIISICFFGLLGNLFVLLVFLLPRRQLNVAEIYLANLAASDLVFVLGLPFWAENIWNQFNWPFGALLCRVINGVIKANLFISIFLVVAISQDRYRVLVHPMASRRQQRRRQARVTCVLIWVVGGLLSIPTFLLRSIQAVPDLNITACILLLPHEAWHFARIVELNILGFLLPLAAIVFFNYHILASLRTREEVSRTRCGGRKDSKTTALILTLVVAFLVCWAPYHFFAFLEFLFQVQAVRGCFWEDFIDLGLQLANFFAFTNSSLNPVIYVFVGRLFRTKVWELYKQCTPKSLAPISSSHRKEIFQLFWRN

[3] = molecular target: T1, human B1R C-terminally tagged with FLAG …; assay: radioligand binding; competition of dilutions of a producer-cell lysate of known EGFP-S4-P1 concentration (GFP ELISA) with 1 nM [^3H]Lys-des-Arg^9-BK (bought radioligand) on intact HEK 293a cells expressing hB1R-FLAG; Ki by the Cheng-Prusoff correction; conditions: partners not purified

Molecule: Lys-des-Arg9-bradykinin (from UniProt P01042)
- Kd [1]: 0.35 nM

Molecule: NGNGNGNGNGKRPPGFSPF (also called (Asn-Gly)5-Lys-des-Arg^9-BK) [synthetic S3-P1]
- IC50 [2]: 75.1 nM

Molecule: NGNGNGNGNGKRPPGFSPL [synthetic S3-P2]
- IC50 [2]: 663 nM

B1: EGFP-S4-P1 (EGFP-(NG)15-Lys-des-Arg^9-BK) (ligand)
chain: NGNGNGNGNGNGNGNGNGNGNGNGNGNGNGKRPPGFSPF
notes: also called EGFP-(Asn-Gly)15-Lys-des-Arg^9-BK
- IC50 [3]: 25.5 nM
- Ki [3]: 6.6 nM
